Target: T1, ARNO CC-domain (Homo sapiens, UniProt Q99418)
T1 construct: ii) 1-60aa, coiled-coil (CC) domain; made in house; host or cells: E. coli BL21(DE3)
T1 sequence (Q99418 1-60): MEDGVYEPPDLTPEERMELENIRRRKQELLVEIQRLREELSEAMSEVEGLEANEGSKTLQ
Assay: GST pull-down of in vitro translated a2N with ARNO CC-domain
Format: binding
Details: Western blot anti-a2N
Procedure: The purified recombinant GST-ARNO(wt) and GST-tagged ARNO domain constructs ([…]) were incubated with 10 μl of in vitro translated 6His-a2N recombinant protein at 4° C. for 2 hours in 500 μl of binding buffer (10 mM HEPES, 1 mM EDTA, 1 mM DTT, 100 mM NaCl, 10% glycerol, 0.1% NP-40) with gentle rotation. Then the interacting recombinant proteins were immobilized on glutathione beads by incubation with 50 μl of 50% glutathione Sepharose 4B slurry for 2 hours at 4° C. The beads were collected by centrifugation and washed 5 times with 500 μl ice-cold binding buffer. Interacting proteins were eluted by boiling in SDS-PAGE sample buffer for 10 min at 95° C., resolved by SDS-PAGE and analyzed by Western blotting using polyclonal anti-a2N antibodies. […]
To examine the ability of these well-defined and functionally distinct domains of ARNO to interact with a2N1-402, full-length ARNO(wt) and its four domains were cloned separately for bacterial expression of recombinant proteins (FIG. 3). […] Interacting proteins were detected by western blot analysis with a2-specific antibodies as described above.

B1: a2N: recombinant N-terminal cytosolic tail, amino acid residues 1-402 of mouse V-ATPase a2-subunit (protein)
chain: MGSLFRSESMCLAQLFLQSGTAYECLSALGEKGLVQFRDLNQNVSSFQRKFVGEVKRCEELERILVYLVQEITRADIPLPEGEASPPAPPLKHVLEMQEQLQKLEVELREVTKNKEKLRKNLLELVEYTHMLRVTKTFLKRNVEFEPTYEEFPALENDSLLDYSCMQRLGAKLGFVSGLIQQGRVEAFERMLWRACKGYTIVTYAELDECLEDPETGEVIKWYVFLISFWGEQIGHKVKKICDCYHCHIYPYPNTAEERREIQEGLNTRIQDLYTVLHKTEDYLRQVLCKAAESVCSRVVQVRKMKAIYHMLNMCSFDVTNKCLIAEVWCPEVDLPGLRRALEEGSRESGATIPSFMNTIPTKETPPTLIRTNKFTEGFQNIVDAYGVGSYREVNPALFTII
modifications: left off: small tags and cut ends
notes: recombinant N-terminal cytosolic tail, amino acid residues 1-402 of mouse V-ATPase a2-subunit
interaction of a2N with ARNO CC-domain: no interaction
